Results published in the nanobody polyreactivity screen of Harvey et al. (2022).

Test: yeast display, Sf9 membrane polyspecificity reagent, FACS + sequencing; frameworks hold sequencing errors
Procedure, shortened: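 Genes from sorted yeast were amplified by colony PCR, read by MiSeq 2 × 250 sequencing and filtered on CDR length. These cells carried a synthetic nanobody library in Saccharomyces cerevisiae BJ5465 and were sorted by FACS into low and high (top ~1%) gates on anti-HA and streptavidin fluorescence. Polyreactivity is labelled according to the gate of origin.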

Row | Sequence | polyreactivity (PSR sort gate)
1 | QVQLVESGGGLVQAGGSLRLSCAASGRTFDVYAMGWYRQAPGKERELVATISRSGGSTYYADSVKGRFTISRDNAKNTVYLQMNSLKPEDTAVYYCAARKRSPPYGYWGQGTQVTVSS | high polyreactivity
2 | QVQLVESGGGLVQAGGSLRLSCAASGLIFWQYAMGCYRQAPGKERELVAAISIGGSTNYADSVKGRFTISRDNAKNTVYFQMNSLKPEDTAVYYCNAAFLRQVWAGYNYWGQGTQVTVSS | high polyreactivity
3 | QVQLVESGGGLVQAGGSLRISCAASGITFPWYAMGWYRQAPGKERELVAAINRAGNTNYADSVKGRFTISRDNAKNTVYLQMNSLKPEDTSVYYCAARWRYKYTLGYWGQGTQVTVSS | high polyreactivity
4 | QVQLVESGGGLVQAGGSLRLSCAASGSTFQWYTMGWYRQAPGKERECVAAISRSGGRTYYADSVKGRFTISRDNAKNTVYLQMNSLKPVDTAVYYCAKYYYLYWSSQRDYWGQGTQVTVSS | high polyreactivity
5 | QVQLVESGGGLVQAGGSLRLSCAASGSTFSIYAMGWYRQAPGKERELVAAISSSGGSTYYADSVKGRFTISRDNAKNTFYLQMNSLKPEDTAVYYCNKRKYHVRYDYWGQGTQVTVSS | low polyreactivity
6 | QVQHVESGGGLVQAGGSLRLSCAASGSTFYIYAMGWYRQAPGKERELVATITDGGSTNFADSVKGRFTISRDNAKNTVYLQMNSLKPEDTAVYYCNANVWTGYDYWGLGTQVTVSS | low polyreactivity
7 | QVQLVESGGGLVQAGGSLRLSCAASGSTLVTHAMGWYRQAPGKERELVAGISRSGGSTYYADSVKGRFTISRDNAKNTVYLQMNSLKPEDTAVYYCAARNYRYLYRMEYWGQGTQVTVSS | high polyreactivity
8 | QVQLVESGGGLVQAGGSLRLSCAASGFILKYNAMGWYRQAPGKERELVAAISSNGGRTYYADSVKVRFTISRDNAKNTVYLQMKSLKPEDTAVDYCAAGRLQPVLGGYWGQGSQVTVSS | low polyreactivity
9 | QVQLVESGGGLVQAGGSLRLSCAASGRIFAVNAMGWYRQAPGNERELVAAITRGGSTNYADSVKGRFTISRDNAKNTVYLQMNSLKPEDTAVYYCAARVYTSPPVRSAPTGYYYWGQGTQVTVSS | high polyreactivity
10 | QVQLVDSGGGLVQAGGSLRLTCGSSGSIFYYYVMGLYIQAHGKERELVAAISSGGGTNYSDSVKGRFTISRYNAKNTVYLQMNSLKPEDTAVYYCAKASAYGLANDYDYCGQGTQVTVSS | low polyreactivity
11 | QVQLVESGGGLVQAGGSLRFSCAASRLTFYWYAMGWYRQPPGKERELVAGISWSGGSTYADSVKGRFTITRDNAKNTVYLQLNSLKPEDTAVYYCAADTYYYRGQSYYYWGQGTEVTVSS | high polyreactivity
12 | HDQLVESGGGLVQAGGSLRLSCAASGFTFLDYAMGWSRKAPGKERELVASISSSGGSTRYADSVKGRFTISRDNAKNTVYLQMKSLKPQDTAVYYCNAQIAEVPNDYWGQGTPVTVSS | low polyreactivity
13 | QVQLVESGGGLVQAGGSLRLSCAASGSIFSPNAMGWYRQAPGKERELVAAISRGDSTYYADSVKGRFTISRDNAKNTVYLQMNSLKPEDTAVYYCAATYLRRPVSGAYRSEYNYWGQGTQVTVSS | high polyreactivity
14 | QVQLVESGGGLVQAGGSLRLSCAASGSIFGFYMGWYRQAPGKERELVAAISGSGGNTYYADSVKGRFTISRDNAKNTVYLQMNSLKPEDTAVYYCAAVSRHRGWDRYYWGQGTQVTVSS | high polyreactivity
15 | QVQLVESGGGLVQAGGSLRLSCAASGSTFYWNGMGWYRQAPGKERELVAAITKSGSRTYYADSVKGRFTISRDNAKNTVYLQMNSLKPEDTAVYYCAAVNYIYTGGGTYYYWGQGTQVTVSS | high polyreactivity
16 | QDQLVDSGGGLVQAGGSLRLSCAASGFNFGYYAMGWYRQAPRKERELVAAISRSGGRTYYADSVKGRFTISRDNAKNTVYLQMNILNPEDTAVYYCNARHYLSAYDYWGQGTQVTVSS | high polyreactivity
17 | QVQLVESGGGLVQAGGSLRLSCAASGRIFAGYVMGWYRQAPGKERELVAAISWRGGRTYYADSVKGRFTISRDNAKNTVYLQMNSLKPEDTAVYYCNAPYAVGYPADDYWGQGTQVTVSS | high polyreactivity
18 | QVQLVESGGGLVQAGGSLRLSCAASGSIFFSNTMGWYRQAPGKERELVASIRETAGSTNYADSLKGRFTISRDYAKITVYLQMHSLKPEDTAVYYCAARYSPTRYHYGYWGQGTQVTVSS | low polyreactivity
19 | QVQLVESGGGLVQAGGSLRLSCAASGNTFGKYAMGWSRQAPGKERELLATITRRGGSTYYADSVKGRFTISRDNAKNTVYLQMNSLNPEDTAVYYCAAVVRYRQGVTRSIMDYWGQGTQVTVSS | high polyreactivity
20 | QVQLVESGGGLVQAGGSLRLSCAASGSIFRYNAMGWYRQAPGKERELVASINAGGGSTYYADSVKGRFTISRDNAKNTVYLLMNSLKPEDTAVYDCAAVAHSATRFRYYWRYDYWGQGTQVTVSS | high polyreactivity
21 | QVQLVESGGGLVQAGGSLRLSCAASGSIFYRNAMGWYRQAPGKERELVAAISARGGRTNYADSVKGRFTISRDNAKNTVYLQMNSLKPEDTAVYYCNTADSWYHRSQAYDYWGQGTQVTVSS | high polyreactivity
22 | QVQLVESVGGLVQAGGRLRLSCAASAFIFTSYAMGLYRQAPGKDRELVAAISKRGGSTYYADSVKGRFTISRDYAKNTDYLQMHSLKPEDTAVYYCATRYPQPYSPGYSYDYWGQGTQVTVSS | high polyreactivity

Row | Sequence | polyreactivity (PSR sort gate)
23 | QVQLVESGGGLVQAGGSLRVSCAASGSTCDVNAMGWYRQAPGKERELVAAMSWSDDATYYAYSVKGRFTISRDNAKNTVYVQMNSLKPEDTAVYYCAADGRYGWYYAVYNGEDYWGQGTQVTVSS | high polyreactivity
24 | QVQLVESGGGLVQAGGSLRLSCAASGRTLSRNAMGWSRQAPGKEREFVAAISSRGTSTYYADSVKGRFTISRDNAKNTVYLQMNSLKPEDTAVYYCATTLGGNYGYDYWGQGTQVTVSS | high polyreactivity
25 | QVQLVESGGGLVQAGGSLRLSCAASGRTFWYYAMGWNRQAPGKERELVAAITRGTSTYADSVKGRFTISRDNAKNTVYLQMNSLKPEDTAVFYCAADTWVTRNSRYDYWGQGTQVTVSS | high polyreactivity
26 | QVQLVESGVGLVQAGGSLRLICAASGSIFGYNAMGWYRQAPGKERELVAAISRSGGRTYYADSVKGSFTISRDNAKNTVYLQMNSLKPEDTAVYYCAASRPGLRTPGQMGYWGQGTQVTVSS | high polyreactivity
27 | QVQLVESGGGLVQAGGSHRLSCAASGSTFTKNAMGWYRQAPGKERELVATISSGGYTNYADSVKGRFTISRDNAKNSVYLQMNSLKPEDTAVYYCNAVYRYRTRREYGYWGQGTQVTVSS | high polyreactivity
28 | QVQLVESGVGLVQAGGSLRLSCAASGLIFFFYAMGWYRQAPGKERELVASISGGGITYYADSVKGRFTISRDNAKNTVYLQMNSLKPEDTAVIKNDYWGQGTQVTVSS | low polyreactivity
29 | QVQLVESGGRLVQAGGSLRLTCASSGRIFRYYAMGWYRQAPGKERQLVAAISSSGGSTYYADSVKGRFTISRDNAKNTVYLQMNSLKPEDTAVYYCAARYHIDTLFYGSRYDYWGQGTQVTVSS | high polyreactivity
30 | QVQLVESGGGLVQAGGSLRLSCAASGFIYDYAMGWYRQAPGKEREFVARINWSGGSTYYADSVKGRFTISRDNAKNTVYLQMNSLKPEDTAVFYCATSGWAWRTSNPYEYWGQGTQVTVSS | low polyreactivity
31 | QVQLVESGGGLVQAGGSLRLSCAASGFTFTYYAMGWYRQAPGKERELVAGITRSGGSTYYADSVKGRFTISRDNAKNTVYLHMNSLKPEDTAVYYCAAVGSLYYYRYDYWGQGTQVTVSS | high polyreactivity
32 | QVQLVDSGGGLVQAGGSLRLSCAASGRTFRSYAMGWYRQAPGKERELVAAITWNGGGTYYADSVKGRFTMSRDNAKNTVYLQMNSLKPEETAVYYCAGRGRTDSYWRFYHWGQGTQVTVSS | high polyreactivity
33 | QVQLVESGGGLVQAGGSLRLSCTASGSTYVAYAMGLYRQAPGKERELVAAITSSGGRTYYADSVKGRFTISRDNAKNTVYLQMNSLKPEDTAVYYCDAVTHGRYDWGQGTQVTVSS | high polyreactivity
34 | QVPMQESGGGLVQADGRLSLSCAASGSIFGYYYMGWYRQAPGKDRELVATINICGITNYADSVKGRFTISRDNAKNTVYLQMNSLKPDATAVYYCAADEYAQRDLGYWGQGPQVTVSS | low polyreactivity
35 | QLQLVESGGGLVQAGGRLRLTCAASGSIFFGNVMGLYIQAPGKERELVAVISWSGGTTYYADSVKGRFTISRDNAKNTVYLQMNSLKTEDTAVYYCNARYLRRGDYWGQGTQVTVSS | low polyreactivity
36 | QVQLVESGGGLVQAGGRLRLSCAASGTRYYAMGWYRQAPGNERELVAGIRWRDGGTYYADSVKGRFTISRDNAKNTVYLQMNSLKPEDTAVYYCNAAQSVELGYDYWGQGTQVTVSS | high polyreactivity
37 | QVQLVESGGGLVQAGGSLRLSCAASGGTFSRNAMGWYRQAPGKERELVAAITWSGTRTYYADSVKGRFTISRDNAKNTVYLQMNSLKPEDTAVYYCATKGRRSADDTLLDYWGQGTQVTVSS | high polyreactivity
38 | QVQLVESGGGLVQAGGSLRLICAASGRIFNSYAMGWFRQAPGKEMELVAAISRNGGITYYADSVKGRFTISRDNAKNTVYFQMNSLKPEDTAVYYCNADSSRRRYSSDYWGQGTQVTVSS | high polyreactivity
39 | QVQLVESGGGLVQAGGSLRLSCAASGFIFKYYAMGWYRQAPGKERELVAAISRSGGSTYYADSVKGRFTISRDNAKNTVYLLMNSLKPEDTAVYYCAADSSWVHEYYYWGQGTQVTVSS | high polyreactivity
40 | QVQLVESGGGLVQAGGSLRLSCAASGSIFGSNMGWYRQAPGKERELVAAISSRGGRTYYADSVKGRFTISRDNAKNTVYLQMNSLKPEDTAVYYCATRTFRGCRGYEYWGQGTQVTVSS | high polyreactivity
41 | QVQLLDSGGGLVQAGGSLSLSCAASGSSFRYYAMGWYRPAPRKEREFVADISWSGSSTYYADSVKGRFTISRDNSKITVYLLMNSLTPEDTAVYYCAARYRYRSSSYDYWGQGTQVTVSS | high polyreactivity
42 | QVQLVESGGGLVQAGGSLRLSCAASGSIFDDYAMGWYRQAPGKEREFVADISYNGGTTYSADSVKGRFTISRDNAKNTVYLQMNSLKPEDTAVYYCAADRTNYTYYLPYDYWGPGTQVTVSS | low polyreactivity
43 | QVQLVESGGRLVQAGGSLRLSCAASGRTFFGYAMGWYRQAPGKEWELVAAISSGGRTYYADSVKGRFTISRDNAQNTVYLQMNSLKPEDTAVYSCAAQYSARYYYWGQGTQVTVSS | high polyreactivity
